Results on 3 proteins are retold here after paper PMC10955559.

What all share (experiment): purified protein
Holding throughout (settings): 100 mM sodium acetate, pH 5.5, 37 °C, 30 min, no added calcium

Substrate in data set [1]: OC[C@H]1O[C@@](CO)(O[C@H]2O[C@H](CO)[C@@H](O)[C@H](O)[C@H]2O)[C@@H](O)[C@@H]1O
It is filed as biochemical, Aedes aegypti.

Substrate in data set [2]: OC[C@H]1O[C@@](CO)(O[C@H]2O[C@H](CO)[C@@H](O)[C@H](O)[C@H]2O)[C@@H](O)[C@@H]1O
In kind it is biochemical, Anopheles gambiae.

Substrate in data set [3]: OC[C@H]1O[C@@](CO)(O[C@H]2O[C@H](CO)[C@@H](O)[C@H](O)[C@H]2O)[C@@H](O)[C@@H]1O
In kind it is biochemical, Culex quinquefasciatus.

B1: AeGluc (Aedes aegypti) (protein)
chain: LDWWEHGNFYQVYPRSFKDSDGDGIGDLDGVTEKLKYLKDIGMDGVWLSPIFSSPMADFGYDISNFREIQTEYGDLDAFQRLSDKCKQLGLHLILDFVPNHTSDQHEYFKKSVQKDETYKDFYVWHPGVHGPNNTKVPPSNWISVFRGSSWEWNEERQEFYLHQFLKEQPDLNYRNPAVVEEMKNVLRYWLDRGVSGFRIDAVPYLFESDIIDGRYRNEPESRTTDDPENPAYLVHTQTMDQPETYDMIYQWRAVLDEYSKTDNRTRIMMTEGYTSLPKIIEFFGNATANGAQIPFNFEVISNVKKNSTGADFATYVKRWLDAKPANRRSNWVLGNHDNNRLGSRLGENKIDLYNIALQTLPDIAVTYYGEEIGMLDQWIPWNETVDPAACRSDEASYSAYSRDPARTPMQWDSGKNAGFSKAAKTWLPVADNYKTLNVKIQDRARKSHLKIFKKLTKYRKRQILTEGDIDIKVSGENLLVYKRKVDKVGYVVVALNFGTEPVALGLSSLFDRADQRMQVVVSSNRVSTPDNVWVDVDNYVLIGESGIVLQYLWGKNPIVS
As a reminder, the Km is the substrate concentration at which the rate is half of its maximum. Usually Vmax stands for the top rate of the reaction or transport when substrate is in excess. What is called kcat is the maximal rate divided by the concentration of active sites. As usually defined, the kcat/Km is the turnover number divided by the Michaelis constant. As for B1, in the data set “purified protein [1]”, the Km stood at 47.6 ± 16.3 mM, the Vmax came to 740 µM/min, the turnover number (kcat) came out at 805 ± 66.7 s⁻¹ and the kcat/Km worked out at 16900 ± 1380 M⁻¹ s⁻¹.

B2: AnGluc (Anopheles gambiae) (protein)
chain: HRPLPIRKAHKFDWWERGNFYQIYPRSFKDSDGDGIGDLKGITQTIDYLKTIGIDGVWLSPIFKSPMNDFGYDISDFYAIQEEYGTMEDFEELAAKCASIGLKLILDFVPNHSSDEHEHFRLSEEGIEPYKDYYIWHSGVLDANGTRHPPSNWISVFRGSAWQWSDKRQQYYLHQFQKKQPDLNYRNPALVEEMKNVMRFWLNKGIAGFRIDALPYLFESEEVDGHYRDEPLSGQATDDPDNPAYLTHTETKDQPETYDMVHQWRQVVDEYTARDNFTRIILTEAYTAVQNMTRFYGTPAAPGAQIPFNFQLITLLTVNSTGRDFVNAVQSWTRAMPSGAIANWVLGNHDNSRIASRLGVARADLYNIALQTLPGIAVTYYGEEIAMVDQWISWNDTIDPAACNADPATYELYSRDPVRTPFQWSNGTNAGFSNASRTWLPVADGYRELNVAAQLAAPRSHLKTFMQLTAYRKRRLLAEGNFVLRTVGRDLVMYKRSVPGVGYVVVALNFGPEPATLPVASQFPGTGEHWLKVIASSLQAQPQAGTWINTRLYKLAPDSGIVLERLTGRNDLMT
With B2, in “purified protein [2]”, the Michaelis constant (Km) came to 20.4 ± 7.4 mM, the maximum rate (Vmax) is 740 µM/min, the turnover number (kcat) was 815 ± 60 s⁻¹ and the kcat/Km was determined as 40000 ± 2920 M⁻¹ s⁻¹.

B3: CxGluc (Culex quinquefasciatus) (protein)
chain: LQWWEHGNFYQVYPRSFKDSDGNGIGDLDGVTEKLQYLKDVGMDGIWLSPIFASPMADFGYDISDFYNIQGEYGDLAAFERLSAKCKELGLRLILDFVPNHTSNQHEYFKKSVQKEDPYTNYYVWHPGVTNEDGTKSPPSNWISVFRGSAWEWNEDRQEYYLHQFLKEQPDLNYRDPALVEEMKNVLKFWLNKGVSGFRIDAVPYLFESVEVENRYVDEPLSRATDDAENPAYLIHNQTMDQPETYDMIYQWRAVLDEFTAKDNQTRIMMTEGYTSIPNVMKFFGEGEQNGAQIPFNFQMISNLRKTSTAADFARYANLWLDNLPAGRRSNWVLGNHDNNRIGSRLGEAKIDLYNIALQTLPDIAVTYYGEEIGMVDQPIPFNETVDPAGLRAGPDDYTLYSRDPARTPMQWNSDKNAGFSSADKTWLPVATNYKQLNVKAQDAAQKSHLKLFKRLTTYRKRQILTHGDLDLRTTDSNLVLYKRKVDKVGYVVVVLNFSDEPQSLAAIKQQFPGADDRLQVVASSKLVTIKDNKWINVADTELPGESAIVLQKLWGPNPVVVYEA
Take B3: in the data set “purified protein [3]”, the Michaelis constant (Km) is 40.1 ± 15.1 mM, the Vmax came out at 690 µM/min, the kcat came to 750 ± 75 s⁻¹ and the kcat/Km is 18700 ± 1850 M⁻¹ s⁻¹.
